In US12679878B2, “CRF2 receptor agonists and their use in therapy” (SANOFI, priority 2020, dated 2026):
Blank lines part the entries; values can stand above or below the binder they belong to. Starred links: 1 amine or outer side, 2 acyl side, 3 side chain; linkers in the order of their positions; H or OH if unused. Non-standard residues stand in square brackets, D forms with d. Groups on a side chain read outwards from the residue. No end group written: not given here. *: point of attachment. γGlu = O=C(O)[C@H](CCC(=O)[*:2])N[*:1]; Palmitoyl = CCCCCCCCCCCCCCCC(=O)*; Aib = CC(C)(N)C(=O)O

Target: human corticotropin-releasing factor 2α (CRF2 α receptor) (human), Q13324
Test: cell-based or functional assay

Sequence of human corticotropin-releasing factor 2α (CRF2 α receptor) (human), Q13324 (Q13324 20-411): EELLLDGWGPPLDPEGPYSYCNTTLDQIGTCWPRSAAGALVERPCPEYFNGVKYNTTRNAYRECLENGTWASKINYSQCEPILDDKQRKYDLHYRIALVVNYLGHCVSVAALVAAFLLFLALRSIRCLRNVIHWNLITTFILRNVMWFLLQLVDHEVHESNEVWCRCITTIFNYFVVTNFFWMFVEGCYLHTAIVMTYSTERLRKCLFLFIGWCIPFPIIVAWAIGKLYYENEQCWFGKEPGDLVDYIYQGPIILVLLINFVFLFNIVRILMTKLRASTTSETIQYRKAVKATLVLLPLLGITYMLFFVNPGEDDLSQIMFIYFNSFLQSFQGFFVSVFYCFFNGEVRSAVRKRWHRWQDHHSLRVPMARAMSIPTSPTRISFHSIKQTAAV

- EC50 [nM], 0% HSA: 0.12 nM
B1: SEQ ID NO: 29 (peptide)
peptide: IVLSLD[dV]PTKLK([γGlu-Palmitoyl])KKLLKQERKRKERE[Aib]AEKAARILERV-NH2
modifications: N-terminus assumed
SMILES: CCCCCCCCCCCCCCCC(=O)N[C@@H](CCC(=O)NCCCC[C@H](NC(=O)[C@H](CC(C)C)NC(=O)[C@H](CCCCN)NC(=O)[C@@H](NC(=O)[C@@H]1CCCN1C(=O)[C@H](NC(=O)[C@H](CC(=O)O)NC(=O)[C@H](CC(C)C)NC(=O)[C@H](CO)NC(=O)[C@H](CC(C)C)NC(=O)[C@@H](NC(=O)[C@@H](N)[C@@H](C)CC)C(C)C)C(C)C)[C@@H](C)O)C(=O)N[C@@H](CCCCN)C(=O)N[C@@H](CCCCN)C(=O)N[C@@H](CC(C)C)C(=O)N[C@@H](CC(C)C)C(=O)N[C@@H](CCCCN)C(=O)N[C@@H](CCC(N)=O)C(=O)N[C@@H](CCC(=O)O)C(=O)N[C@@H](CCCNC(=N)N)C(=O)N[C@@H](CCCCN)C(=O)N[C@@H](CCCNC(=N)N)C(=O)N[C@@H](CCCCN)C(=O)N[C@@H](CCC(=O)O)C(=O)N[C@@H](CCCNC(=N)N)C(=O)N[C@@H](CCC(=O)O)C(=O)NC(C)(C)C(=O)N[C@@H](C)C(=O)N[C@@H](CCC(=O)O)C(=O)N[C@@H](CCCCN)C(=O)N[C@@H](C)C(=O)N[C@@H](C)C(=O)N[C@@H](CCCNC(=N)N)C(=O)N[C@H](C(=O)N[C@@H](CC(C)C)C(=O)N[C@@H](CCC(=O)O)C(=O)N[C@@H](CCCNC(=N)N)C(=O)N[C@H](C(N)=O)C(C)C)[C@@H](C)CC)C(=O)O

- EC50 [nM], 0% HSA: 0.14 nM
B2: SEQ ID NO: 28 (peptide)
peptide: IVLSLD[dV]PTKLK([γGlu-Palmitoyl])KKLLKQERKRKEREKAEKAARILERV-NH2
modifications: N-terminus assumed
SMILES: CCCCCCCCCCCCCCCC(=O)N[C@@H](CCC(=O)NCCCC[C@H](NC(=O)[C@H](CC(C)C)NC(=O)[C@H](CCCCN)NC(=O)[C@@H](NC(=O)[C@@H]1CCCN1C(=O)[C@H](NC(=O)[C@H](CC(=O)O)NC(=O)[C@H](CC(C)C)NC(=O)[C@H](CO)NC(=O)[C@H](CC(C)C)NC(=O)[C@@H](NC(=O)[C@@H](N)[C@@H](C)CC)C(C)C)C(C)C)[C@@H](C)O)C(=O)N[C@@H](CCCCN)C(=O)N[C@@H](CCCCN)C(=O)N[C@@H](CC(C)C)C(=O)N[C@@H](CC(C)C)C(=O)N[C@@H](CCCCN)C(=O)N[C@@H](CCC(N)=O)C(=O)N[C@@H](CCC(=O)O)C(=O)N[C@@H](CCCNC(=N)N)C(=O)N[C@@H](CCCCN)C(=O)N[C@@H](CCCNC(=N)N)C(=O)N[C@@H](CCCCN)C(=O)N[C@@H](CCC(=O)O)C(=O)N[C@@H](CCCNC(=N)N)C(=O)N[C@@H](CCC(=O)O)C(=O)N[C@@H](CCCCN)C(=O)N[C@@H](C)C(=O)N[C@@H](CCC(=O)O)C(=O)N[C@@H](CCCCN)C(=O)N[C@@H](C)C(=O)N[C@@H](C)C(=O)N[C@@H](CCCNC(=N)N)C(=O)N[C@H](C(=O)N[C@@H](CC(C)C)C(=O)N[C@@H](CCC(=O)O)C(=O)N[C@@H](CCCNC(=N)N)C(=O)N[C@H](C(N)=O)C(C)C)[C@@H](C)CC)C(=O)O
